Earlier results, collected in paper PMC11638072.

Molecular target: Trigger factor (Escherichia coli) (UniProt P0A850)

Chain of Trigger factor (P0A850 whole entry): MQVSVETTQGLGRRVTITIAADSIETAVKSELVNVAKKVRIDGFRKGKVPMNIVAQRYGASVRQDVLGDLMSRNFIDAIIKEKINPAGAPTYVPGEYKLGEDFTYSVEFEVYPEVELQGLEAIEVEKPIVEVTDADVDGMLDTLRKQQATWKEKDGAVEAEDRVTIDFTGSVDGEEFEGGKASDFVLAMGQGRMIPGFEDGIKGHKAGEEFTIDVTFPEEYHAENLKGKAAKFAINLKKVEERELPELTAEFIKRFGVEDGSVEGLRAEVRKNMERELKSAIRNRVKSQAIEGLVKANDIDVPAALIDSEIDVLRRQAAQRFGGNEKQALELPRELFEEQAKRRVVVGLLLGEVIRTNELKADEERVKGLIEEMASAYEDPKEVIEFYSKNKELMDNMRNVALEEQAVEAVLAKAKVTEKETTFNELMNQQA

For Trigger factor (from UniProt P0A850), the Kd is given as 1000 nM.
